Measurements as given in the DeepSol protein solubility set.

Experiment: soluble on expression in E. coli; label from the status in PepcDB or PDB records

Sequence	soluble on expression in E. coli
MGSDKIHHHHHHMDYMKKLLGAEDLFDRDEPLKGVRVLEVCSVVLGPAATDYLAEFGAEVIKFEARRGDQMRYVTPYAYFWRNLSPGLLEQNHNKYWVGMHLGHPKARELFYEFVKRSDVVVDNLTPGRLSKWGISYDRLREINPRIIQLHVSGFGSWGPYTGRTSYDAIAQSEGGLAYITGFEGRGPLKSGVWIADWTTALMCAVAIVAALNYRERTGEGQYIDYSQVENVIRFLDWTWTYVDMTGENRERVGNRDLAICPSDLFDCKDGWVAIVAFSEEEFKGLCQAMGRMDLYEKFADPLERLKDENARLILKEIAEWAKTKTVKDVEELADKYGFAASHVIEVDEAYYSEHLRERGAIMAYDDPLYGEFVEPCYPPRMETPSRLKWGARPLGFDNEFVLTKYLGLSMDEIEQLYEEGVIYRWNPDVKPQCPPPDWDGKKGLKFP	not soluble
MSLDRFVVTYRIVAEDEADAAARAASIALEDTVEIPRDVVPAGYVEDVVLGRVESVTARGGGVWTALIGYHVDAVGRELPQLLNVILGNASILRGVKAVDLAPDAALAERFPGARFGAAGVRRLTGRASGGFVCPVIKPQGSSAETLARLCYLSAVAGADIVKEDHGLANQDAAPFRERIGACAEAVGRANAERRDQGDTTQALYFANLCGPPHQLRDQAYYAKESGAHGILLIPGLHGFDAMFELAQDPDFDLPIMAHPSHLGPYVLSPDHGYGHGMLFGQLMRLAGADISVFPNHGGRFGFSVDECEEIVRACRDPEGLGPAILPSPGGGMSPERLPDMMAQYGEDCVYLLGGSLLRAGDRIGELIAEMRAALSGRDEGHHHHHH	soluble
MNEIYDREQMIKLLDLAKNTEMELPINLAIGLGLRISEVLGLTWDNIDFEENTITVNKITSRINGSVILKEPKTESSVRKISSPKELMSLLKEYKIKQNKNLLKSSIRNNNNLLFFNKKCEPIAEDVMSKKFKRFLEKNELPHIRFHDLRHSHVTLLINSKVPIKVISERVGHSNISTTLSVYSHVLKEMDKEASDKISESLFNANLEHHHHHH	not soluble
MRLLDIWMRSAAALMLLSGAAFADVTVSQSNDPSVSLGGQLSALLGAERSALGTLPAQRLEQVAAAVARPEAKPEAPVKAVATKGNRGAKAADDAPAPRYDEAWLASQPATAKDSDEWKCLATALYFEARGESIQGQFAVAEVIMNRVDRPGYPGSICGVVRQGGQFSFMFDGKPETIREKAAFQRAGKIAALMLAGAPRQLTQGATHFHTRAVRPGWAHRFPRTAAIGAHLFYRQPGGS	not soluble
MWHSIEQAISVETGKSFYISEKKEISTRPASSSSFTCSYDNKEPPPNLSFKITDGHRSYFLKINNKDYLENFQAEAYSLKQLNSLANIASPNVTAIGTSLDKSFLVLDYIDFSKAKPMLWYQLGQQLAQMHYENRHGQFGWQHDNFIGSTIQPNHWSSNWTTFFSDQRIAWQLQLLSERSIMLGNIEHITQVCHDALLHHQVSPCLVHGDLWQGNTGFSGEKAMIFDPACYYGDREVDIAMTELFGHFPDDFYHGYQAEYPLDDGYEQRKLVYNFYHILNHANIFGGIYIDQAKATLSRIMSLPLHLEHHHHHH	not soluble
HQRWHKKASVLIYGAGSSGRQLATALSQGPEYHAVAFIDDYKALQGQIIQGIPVYSPEEISHVVERKTVQKILLAIPSASRARRKQVLAKIDCLGIQVLTIPGMADIVEGKAKLEEFKDVGVEDLLGRDSVEPKPELMNADIAD	not soluble
MGSDKIHHHHHHMQKEQCYMCEKSATSAEHVPPKCLFPEFKDAKKNLRVNLITVPSCDEHNGKKSHDDEFLMVSIAGIIGNNSIGYQHYSGKIQRALRRTSYKLLEKVFLRKELVRIGDENKFIEILWGTPDYERLINCFSHIAYGIYHHHFKQKFYGVLKPYLGFLHTNEQNPKAFKAFIKEKVRVELADEPKYGDNLEVFYYQFTKPDNFGIFLVKLCFYQNVDVFVSYMPSGAQKPTHLGFELMNRGIKTIITLGDKEYEFN	not soluble
MIRAVHSAAIVLLVFSYMAEFSGAASGGYAPASVGTQPVGTSFRDRLADGSPGPVMVVIPPGRFRMGAIFGGGDPDEKPVHEVSIPRAFAIGAYEVTFAEYDRFCEATGREKPKDGRRWFGPLSRNWGRGNKPAMNVSWDDAVAYVKWLSDQTGHRYRLPSEAEWEYAARGGKDTPYWWGGTVGQNKANCKGCGSRWDKKITAPVGSFAPNPYGMFDTAGNVWEWCVDTWHESYDGAPADGSPWIGGEDSRRVQRGGSFGSKPRYIRSSARGRGAQDGRYVYLGFRVVRELLEHHHHHH	not soluble
MSLGTLASLHLNSGDAHHKQRTVTILEFSSSLKLVYKPRSLKVDGVFNGLLAFLNDRTGEVIKDQYCPKVLQRDGYGYVEFVTHQSCQSLEEVSDFYERLGSLMSLSYVLNSSDFHFENIIAHGPYPVLIDLETIIHNTADSSEETSTAMDRAFRMLNDSVLSTGMLPSSIYYRDQPNMKGLNVGGVSKSEGQKTPFKVNQIANRNTDEMRIEKDHVTLSSQKNLPIFQSAAMESVHFLDQIQKGFTSMYQWIEKNKQEFKEQVRKFEGVPVRAVLRSTTRYTELLKSSYHPDLLRSALDREVLLNRLTVDSVMTPYLKEIIPLEVEDLLNGDVPYFYTLPEERALYQEASAINSTFFTTSIFHKIDQKIDKLGIEDHTQQMKILHMSMLASNANHYADVADLEGHHHHHH	not soluble
MSLSDKDKRRLEYKELAKESKAKSKMLAASQGKGLVAKIAIGSALGNIIGNAMSKAAGGLLGFAKKAVEEKSKTNRAKLLNSAFFEKDERNTIMGTLKGMKGFERDLEKEEFLNQASVFKGTLRDLGMLNLTNLKKAVEFSAALKSSGAMSGEDAVKAVNSLLSGEGDELFDLLKKSGVGDKYIEDAKKAWQSGAEVDLESRITMLVEMFKDFKSFGITKKADTKEEIDSNLASAEQTLSNLTTTVLDPLLKFIKMVTGLSEGHHHHHH	soluble
MSLNCTLDELRQRIEAHRPRQLDTDQRFPQAAVLVPITRSDDPELVLTLRAAGLSTHGGEVAFPGGRRDPEDADLVRTALREAEEEIALPPGLVEVVGPLSTLVSRHGIEVTPYVAFIPDFVEYQPNDGEIAAVFNVPLSFFRDDPREVTHRIDYFGRSWYVPSYRFGEFKIWGLTAIMVVELVNLLYDDPIDLHTPPASFIKLSEGGSHHHHHH	soluble
MFLTAVRRSSNVLKTFKPLYDRVLVERVAAETKTKGGIMLPEKSQGKVLEATVVSAGAGLRNEKGELVALTVKPGDRVLLPEYGGTKVVVEDKEYSIFRESDLLGVFH	not soluble
KGFFALSSCTLGLGLILTACGARGKFDQVDDGVIKLATSIQNKDSIAALNTIYKKYKERHPGSYPVQNFQVPGGYSGLRNDIRTRLSAKDGNNFYNI	not soluble
MSRLEIYSPEGLRLDGRRWNELRRFESSINTHPHAADGSSYMEQGNNKIITLVKGPKEPRLKSQMDTSKALLNVSVNITKFSKFERSKSSHKNERRVLEIQTSLVRMFEKNVMLNIYPRTVIDIEIHVLEQDGGIMGSLINGITLALIDAGISMFDYISGISVGLYDTTPLLDTNSLEENAMSTVTLGVVGKSEKLSLLLVEDKIPLDRLENVLAIGIAGAHRVRDLMDEELRKHAQKRVSNASAR	not soluble
SLLSIIPISAGIPLTETEPKQKWLEEWSKQLFVKVSIDSEYGWGEVLPAAFNSPALYADIVKRLEPSLNGMEISEPGIIWEKLRKLTFSGGYGPVIGAISGVDIALWDLKAKLSKLYLGDIFGKNEQKIARYASLSRYANYEAVIRASKNIVESGFKAIKLHQTKDDTLESVKRFREEIGYGVDLMVDLNCAMNIDEAIKFANSVQRYELKWVEEPIWPPDDLASLKKINDIVPVAAGENFFDFFKFEDAVHLEALTYYQPDVTKVGGLTPTLKILDLLKKNHEQVAFHNRPHNGWIGIFASIAAARMNGVDALIETPPNGVPSQYFRYNAMITSEVIAPNGVGLSIEPIEPLPQPKDEKILIFHD	soluble
MIIKDILRENQDFRFRDLSDLKHSPKLCIITCMDSRLIDLLERALGIGRGDAKVIKNAGNIVDDGVIRSAAVAIYALGDNEIIIVGHTDCGMARLDEDLIVSRMRELGVEEEVIENFSIDVLNPVGDEEENVIEGVKRLKSSPLIPESIGVHGLIIDINTGRLKPLYLDE	soluble
MSAIEVTADAASTWDWPLQHNDGVVKVHNTKEKFEVGLDVQFFTPKEIEVKVSGQELLIHCRHETRSDNHGTVAREINRAYKLPDDVDVSTVKSHLATRGVLTITASKKA	soluble
SLKTLFEVKQLLKQYGAFIYTRDLDADMQLMQMEMEELHRLGLIERGEFQQAMLVLKREQRAAKMGERAND	soluble
MAHHHHHHMLRSPQPRFPQHVPGAYPPQQQQQMPPQPQSQPQMPMNAQPPAQAIQQQLEHQDVVHDTQFDYYGQLLATASSDRTIGIHVVQNGQLQRIATLTGHEGPVWMVSWAHPRFGMALASAGYDHKAIIWKEMSQSSKQWAPVHVIDCHHGSVNAVQWAPETPMVATASSDGTVAVTVFEGGVWRDSLKLSNNSNNIAHAMGATSVSFAPMRPSLGGAVLLASGGCDSQVRLWCLQEGSPMANSFELLEVLEGHTDWVRDVAFAPLCAATRHAVLASCGQDKSVIIHRKPWDQLGALIQERQRSSSTNGPQQYLQKESGGIWERSVVLFEEPVWRLSWSPAEEVLVVTTGDSEVYILRENGEFTQPWLKTPLSEYQSGTR	not soluble
MRLLTWDVKDTLLRLRHPLGEAYATKARAHGLEVEPSALEQGFRQAYRAQSHSFPNYGLSHGLTSRQWWLDVVLQTFHLAGVQDAQAVAPIAEQLYKDFSHPCTWQVLDGAEDTLRECRTRGLRLAVISNFDRRLEGILGGLGLREHFDFVLTSEAAGWPKPDPRIFQEALRLAHMEPVVAAHVGDNYLCDYQGPRAVGMHSFLVVGPQALDPVVRDSVPKEHILPSLAHLLPALDCLEGSAENLYFQSHHHHHHDYKDDDDK	soluble
MASEKPLAAVTCTAPVNIAVIKYWGKRDEELVLPINSSLSVTLHQDQLKTTTTAVISKDFTEDRIWLNGREEDVGQPRLQACLREIRCLARKRRNSRDGDPLPSSLSCKVHVASVNNFPTAAGLASSAAGYACLAYTLARVYGVESDLSEVARRGSGSACRSLYGGFVEWQMGEQADGKDSIARQVAPESHWPELRVLILVVSAEKKLTGSTVGMRASVETSPLLRFRAESVVPARMAEMARCIRERDFPSFAQLTMKDSNQFHATCLDTFPPISYLNAISWRIIHLVHRFNAHHGDTKVAYTFDAGPNAVIFTLDDTVAEFVAAVWHGFPPGSNGDTFLKGLQVRPAPLSAELQAALAMEPTPGGVKYIIVTQVGPGPQILDDPCAHLLGPDGLPKPAA	soluble
MSLDAHAQSYYRDCYRGAANMVRAMQKRANTLLSAGQTIADRQHKFIRSGRLRDKQPLTMTLIAQEAGLNKSTISRALSNCRIRLDSGIFPAEHFLARPLSDDTPDRTRDQVLQRLRLLIETENPRSPMSDQVLARQLGKARLSISRRTVAKYRQFLQIPGAYERKRNTEGHHHHHH	not soluble
MANNVTFWFDVSCPFCWITSRWIKEVEKVRDISVTWVPMSLSVLNDGRDELPQDYKDKMKANWGPARVFAAVATEQPDRVDALYTAMGTRIHNQGEGGKQGYAAYDAIIADALEDVGLPASYAAVANTDTWDNALAAFHATAMDAVGNDVGTPVVKLGDTAFFGPVLTRIPRGEEAGMLFDASFQLAAYPHFFEIKRTRTESPQFD	not soluble
MSQTGEKGKFPDAAGYVGFANLPNQVHRKSVKKGFEFTLMVVGESGLGKSTLINSLFLTDLYPERYIPGAAEKIERTVQIEASTVEIEERGVKLRLTVVDTPGYGDAINSQDCFKTIIQYIDNQFERYLHDESGLNRRHIVDNRVHCCFYFISPFGHGLKPLDVEFMKAIHSKVNIVPVIAKADTLTLKERDRLKRRILDEISEHGIRIYQLPDADSDEDEEFKDFVPNRCIWSSLQFYQMHIIAITFIDIMFVFKKAAHVISTTIIMVKLNIKCQ	not soluble
TGAGTPSQGKKNTTTHTKCRRCGEKSYHTKKKVCSSCGFGKSAKRRDYEWQSKAGE	soluble
